Laboratory results: the Immune Epitope Database (IEDB)

Assays:
Assay in all cases: IEDB peptide-MHC binding, purified MHC/competitive/radioactivity; filed as Kd, often an IC50 or EC50 that approximates it; ≥ and ≤ were set here for values at or beyond the usual limits of such assays
[1] = target: HLA-A*11:01
[2] = target: HLA-A*03:01
[3] = target: HLA-A*31:01
[4] = target: HLA-A*68:01
[5] = target: HLA-A*33:01
[6] = source organism: SARS coronavirus Tor2
[7] = source organism: Dengue virus 3 Martinique/1243/1999
[8] = source organism: Mammarenavirus juninense
[9] = source organism: Dengue virus 4 Philippines/H241/1956
[10] = source organism: Dengue virus 2 Peru/IQT2913/1996
[11] = source organism: Vaccinia virus WR
[12] = source organism: Dengue virus 4 Dominica/814669/1981
[13] = source organism: Lymphocytic choriomeningitis virus (strain Armstrong)
[14] = source organism: Mammarenavirus brazilense
[15] = source organism: Dengue virus 3 Sri Lanka/1266/2000
[16] = source organism: Dengue virus 2 Jamaica/1409/1983
[17] = source organism: Dengue virus 1 Brazil/97-11/1997
[18] = source organism: Mammarenavirus lassaense

| Sequence | Kd [1, 11] [nM] | Kd [2, 11] [nM] | Kd [3, 11] [nM] | Kd [4, 11] [nM] | Kd [5, 11] [nM] | also measured |
| --- | --- | --- | --- | --- | --- | --- |
| MQGAVDINR | – | – | – | – | – | Kd [1, 6]: 631 nM; Kd [2, 6]: ≥ 23100 nM; Kd [3, 6]: 412 nM; Kd [4, 6]: 344 nM; Kd [5, 6]: ≥ 37400 nM |
| KNKAWMVHR | – | – | – | – | – | Kd [3, 7]: 1.18 nM |
| FLAVFQSATK | – | – | – | – | – | Kd [1, 6]: 1610 nM; Kd [2, 6]: 34.3 nM; Kd [3, 6]: 10800 nM; Kd [4, 6]: 8.81 nM; Kd [5, 6]: ≥ 22400 nM |
| YAKKFKTGMH | – | – | – | – | – | Kd [1, 8]: ≥ 69700 nM; Kd [2, 8]: ≥ 70000 nM; Kd [3, 8]: ≥ 28200 nM; Kd [4, 8]: ≥ 70100 nM; Kd [5, 8]: ≥ 29200 nM |
| ATVVIGTSK | – | – | – | – | – | Kd [3, 6]: 1320 nM; Kd [4, 6]: 101 nM; Kd [5, 6]: ≥ 77700 nM |
| TMPLVMAWR | – | – | – | – | – | Kd [3, 9]: 8.48 nM; Kd [5, 9]: 6.43 nM |
| TVMAFHLTTR | – | – | – | – | – | Kd [1, 10]: 108 nM; Kd [3, 10]: 1.57 nM; Kd [4, 10]: 12.2 nM; Kd [5, 10]: 8.12 nM |
| RVYADPMALK | – | – | – | – | – | Kd [1, 9]: 90.3 nM; Kd [2, 9]: 6.98 nM; Kd [4, 9]: 16.1 nM |
| AAQRRGRIGR | – | – | – | – | – | Kd [3, 9]: 2.16 nM |
| GVLARWGTFK | – | – | – | – | – | Kd [1, 7]: 74.4 nM; Kd [2, 7]: 5.23 nM |
| ENKAWLVHR | – | – | – | – | – | Kd ([5]; source organism: Dengue virus 2 16681-PDK53): 7 nM |
| ALFMYYAKR | 66.1 | 12.3 | 0.449 | 943 | 32.5 | – |
| IFVSLVKKNK | 1860 | 365 | 69.1 | 56.3 | 55 | – |
| MTLMKGASR | – | – | – | – | – | Kd [3, 12]: 30.5 nM; Kd [4, 12]: 52.3 nM; Kd [5, 12]: 11.6 nM |
| RCHDHYLCRH | – | – | – | – | – | Kd [1, 13]: ≥ 69700 nM; Kd [2, 13]: ≥ 46800 nM; Kd [3, 13]: 14400 nM; Kd [4, 13]: ≥ 70100 nM; Kd [5, 13]: ≥ 70000 nM |
| NTNLIKCSDH | – | – | – | – | – | Kd [3, 14]: ≥ 37500 nM; Kd [5, 14]: ≥ 60300 nM |
| KIFSEVTPK | – | – | – | – | – | Kd ([2]; source organism: Homo sapiens): 10 nM |
| VMNFIPIIY | 60.5 | 58.7 | ≥ 20900 | 8850 | ≥ 77700 | – |
| VIENGILKK | 29.6 | 438 | 12900 | 1830 | ≥ 77700 | – |
| CIFAFIDFSK | 9.02 | 18.4 | 136 | 46.1 | 64.6 | – |
| EITAEWLWR | – | – | – | – | – | Kd [4, 15]: 114 nM; Kd [5, 15]: 11.4 nM |
| DIDILQTNSR | ≥ 27300 | 63.8 | 711 | 839 | 314 | – |
| IILARNEEGR | ≥ 24300 | 9520 | 71.2 | 1160 | 344 | – |
| PVLKAMHDK | 879 | 645 | ≥ 67400 | 2520 | ≥ 77700 | – |
| VIRLLIWAY | 1930 | 12900 | 1220 | 5930 | 12400 | – |
| KAGQNIRLSH | – | – | – | – | – | Kd [1, 14]: 12800 nM; Kd [2, 14]: 1680 nM; Kd [3, 14]: 5260 nM; Kd [4, 14]: ≥ 70100 nM; Kd [5, 14]: ≥ 70000 nM |
| GFKNGSRHSH | – | – | – | – | – | Kd [1, 8]: ≥ 42700 nM; Kd [2, 8]: 14400 nM; Kd [3, 8]: 882 nM; Kd [4, 8]: 2960 nM |

| Sequence | Kd [1, 11] [nM] | Kd [2, 11] [nM] | Kd [3, 11] [nM] | Kd [4, 11] [nM] | Kd [5, 11] [nM] | also measured |
| --- | --- | --- | --- | --- | --- | --- |
| ILKRWGTIK | – | – | – | – | – | Kd [2, 16]: 14.2 nM |
| FFLMVLLIPE | – | – | – | – | – | Kd [5, 17]: 208 nM |
| YSRVNHAKY | ≥ 42200 | 1530 | ≥ 73700 | 1190 | ≥ 77700 | – |
| GSLITCAKFK | – | – | – | – | – | Kd ([1]; source organism: Dengue virus 1 Nauru/West Pac/1974): 244 nM |
| RVPSHLAHR | – | – | – | – | – | Kd [3, 7]: 0.845 nM |
| KQIANQFNK | – | – | – | – | – | Kd [1, 6]: 138 nM; Kd [2, 6]: 108 nM; Kd [3, 6]: 24.2 nM; Kd [4, 6]: 9990 nM; Kd [5, 6]: ≥ 77700 nM |
| GTVMDIISRK | – | – | – | – | – | Kd [1, 7]: 47.6 nM |
| NVFKAMETFK | 13.7 | 27.2 | 63 | 1.32 | 234 | – |
| STIANSNIIK | 0.545 | 251 | 1130 | 16.1 | 19500 | – |
| RSKQKIGDLR | 14000 | 3830 | 48.3 | 1300 | 12700 | – |
| EATQLATLR | – | – | – | – | – | Kd [4, 7]: 15.9 nM; Kd [5, 7]: 94.7 nM |
| IMDKEQLLK | 22 | 10.2 | 1130 | 1110 | 6380 | – |
| IVSLCPTKK | 54.1 | 359 | 1610 | 912 | 7690 | – |
| LVKSYSLIR | 1490 | 15600 | 18.4 | 816 | 1690 | – |
| FVCRRTFVDR | – | – | – | – | – | Kd [3, 17]: ≥ 70000 nM; Kd [5, 17]: 65.2 nM |
| SILSLETVK | 4.15 | 24.9 | 2610 | 515 | 18500 | – |
| SMQGAVDINR | – | – | – | – | – | Kd [1, 6]: 1160 nM; Kd [2, 6]: 2290 nM; Kd [3, 6]: 188 nM; Kd [4, 6]: 142 nM; Kd [5, 6]: 470 nM |
| MSTYGWNIVK | – | – | – | – | – | Kd [4, 7]: 6.17 nM |
| FLRSIAMLK | 213 | 2.04 | 153 | 107 | 611 | – |
| VLAFITFLR | – | – | – | – | – | Kd [2, 9]: 267 nM; Kd [3, 9]: 4.41 nM; Kd [4, 9]: 8.39 nM; Kd [5, 9]: 70.4 nM |
| NSSAVVDNK | 195 | 8230 | ≥ 30600 | 44.1 | ≥ 77700 | – |
| MLFTSTNDK | 20 | 5.47 | 18400 | 26.2 | ≥ 77700 | – |
| KATLTEGVYR | – | – | – | – | – | Kd [3, 9]: 76 nM |
| QQWIQFMMSR | – | – | – | – | – | Kd [1, 6]: 7800 nM; Kd [2, 6]: 12500 nM; Kd [3, 6]: 127 nM; Kd [4, 6]: 6640 nM; Kd [5, 6]: 1450 nM |
| GVTSSGAIYK | 45.9 | 181 | 1350 | 81.3 | ≥ 10000 | – |
| CSKHMDARY | 10100 | 19100 | ≥ 45200 | 18700 | ≥ 77700 | – |
| QVYFESFVR | – | – | – | – | – | Kd [1, 13]: 54.8 nM |

| Sequence | Kd [1, 11] [nM] | Kd [2, 11] [nM] | Kd [3, 11] [nM] | Kd [4, 11] [nM] | Kd [5, 11] [nM] | also measured |
| --- | --- | --- | --- | --- | --- | --- |
| ITGNNIILSK | 0.713 | 3.51 | 2460 | 7.62 | 2000 | – |
| DTEDIVSDSK | 1660 | 7660 | 15800 | 201 | 3160 | – |
| CTSQILLMR | – | – | – | – | – | Kd [4, 17]: 16.7 nM |
| QMWTLMYFHR | – | – | – | – | – | Kd [3, 16]: 1.86 nM; Kd [5, 16]: 35.3 nM |
| FTDPASIAAR | – | – | – | – | – | Kd [4, 16]: 25.6 nM; Kd [5, 16]: 125 nM |
| ELYDTSPTKR | 10500 | 756 | 1850 | 1.52 | 142 | – |
| TYLGPQFCK | – | – | – | – | – | Kd [1, 18]: 13.3 nM; Kd [2, 18]: 156 nM; Kd [3, 18]: 5080 nM; Kd [4, 18]: 32.3 nM; Kd [5, 18]: 310 nM |
| PLHILASNKK | 3420 | 1480 | 7700 | ≥ 21900 | ≥ 70000 | – |
| VFGSTMNNK | – | – | – | – | – | Kd [1, 6]: 2510 nM; Kd [2, 6]: 4340 nM; Kd [3, 6]: 2630 nM; Kd [4, 6]: 4460 nM; Kd [5, 6]: ≥ 43700 nM |
| KKNGAIKVLR | – | – | – | – | – | Kd [3, 17]: ≥ 70000 nM |
| PLFDFVNEK | 413 | 1940 | 1220 | 222 | 5520 | – |
| PMVIENGILK | 216 | 10200 | ≥ 24100 | 292 | ≥ 70000 | – |
| HLKCRLRMDK | – | – | – | – | – | Kd [2, 16]: 119 nM |
| NKKPRLCTR | – | – | – | – | – | Kd [5, 7]: 3910 nM |
| DSALTLHWFR | – | – | – | – | – | Kd [4, 9]: 13.1 nM; Kd [5, 9]: 3.27 nM |
| LTVCYVLTGR | – | – | – | – | – | Kd [4, 16]: 6.43 nM |
| DVISRRDQR | – | – | – | – | – | Kd [4, 17]: 66.3 nM; Kd [5, 17]: 68.2 nM |
| EMGANFRADR | – | – | – | – | – | Kd [3, 17]: ≥ 70000 nM |
| HYDQENPYR | – | – | – | – | – | Kd [5, 9]: 7870 nM |
| AIKVLRGFKK | – | – | – | – | – | Kd [1, 17]: 817 nM |
| SLRETACLGK | – | – | – | – | – | Kd [2, 17]: 8.06 nM |
| RNKKPRLCTR | – | – | – | – | – | Kd [3, 7]: 92.6 nM |
| LTYQNKVVR | – | – | – | – | – | Kd [3, 16]: 11.3 nM; Kd [4, 16]: 46.1 nM |
| TIIGRRLQR | – | – | – | – | – | Kd [4, 9]: 617 nM; Kd [5, 9]: 416 nM |
| YFWQKKKQR | – | – | – | – | – | Kd [3, 17]: 2220 nM; Kd [5, 17]: 98.2 nM |
